Experiment [1] concerns the target rBet v 1.2801 (database accession number: Z80104) (birch). The experiment in a line: Biacore SPR, BV16 on the chip, antigen injected at 5 concentrations.
Experiment [2] deals with mutated rMal d 1 (2781) (apple) (UniProt Q40280). The description is as above.
Experiment [3] concerns the target receptor-bound IgE on basophils of birch pollen allergic patients. Description: cell-based or functional assay.
The target of experiment [4] is pooled IgE serum from birch allergic patients (FIG. 8A). The experiment in a line: solid phase IgE inhibition assay (ADVIA Centaur), inhibitor at 3000 ng/test, competitor biotinylated rBet v 1.2801.
Experiment [5] has the same target. The experiment in a line: solid phase IgE inhibition assay (ADVIA Centaur), reference rBet v 1.2801.

For orientation: Kd means the constant that tells how readily two partners part at equilibrium. High values mean a looser complex, low ones a tighter complex. By koff is commonly meant the rate constant with which the complex falls apart. The term kon denotes the rate constant with which the complex forms. A higher kon goes with faster complex formation. In experiment [1], “monoclonal mouse IgG antibody BV16 raised against nBet v 1” returned a dissociation constant Kd of 0.24 nM, a koff of 2.5e-05 s⁻¹ and a kon of 100000 M⁻¹ s⁻¹. In experiment [2], this molecule showed an equilibrium dissociation constant (Kd) of 0.27 nM and an on-rate (kon) of 120000 M⁻¹ s⁻¹.

B1: mutated rMal d 1 (2781), Q40280 2-159 (protein)
chain: GVYTYENEYTSEIPPPRLFKAFVLDADNLIPKIAPQAIKHAENIEGNGGPGTIKKITFGEGSQYKYVKHRIDSVDHANYSYAYTLIEGDALTDTIEKVSYETKLVASGSGSIIKSISHYHTKGDVEIMEEHVKAGKEKAHGLFKLIESYLKDHPDAYN
B1: the shift of the histamine release curve toward higher antigen concentrations compared to rBet v 1.2801 in experiment [3] turned out to be 2 fold.

B2: mutated rMal d 1 (2760), Q40280 2-159 (protein)
chain: GVYTYENEYTSEIPPPRLFKAFVLDADTLIPQIAPQAIKHAEILSGDGGPGTIKKITFGEGSQYGYVKHKIDSVDEANYSYAYTLIEGDALTDTIEKVSYETKLVASGSGSIIKSISHYHTKGDVEIMEEHVKAGKEKAHGLFKLIESYLKDHPDAYN
For the molecule B2, the concentration required to trigger histamine release in patient (p) compared to rBet v 1.2801 in experiment [3] is 100 fold.

B3: mutated rMal d 1 (2781) (protein)
chain: GVYTYENEYTSEIPPPRLFKAFVLDADNLIPKIAPQAIKHAENIEGNGGPGTIKKITFGEGSQYKYVKHRIDSVDHANYSYAYTLIEGDALTDTIEKVSYETKLVASGSGSIIKSISHYHTKGDVEIMEEHVKAGKEKAHGLFKLIESYLKDHPDAYN
In experiment [4], B3 had a percent inhibition of binding of serum-IgE to biotinylated rBet v 1.2801 of 39%. In addition, in experiment [5], the fold higher antigen concentration than rBet v 1.2801 to reach the same IgE inhibition (39%) is 1000 fold.

B4: mutated rMal d 1 (2762), Q40280 2-159 (protein)
chain: GVYTYENEYTSVIPPARLFKAFVLDADNLIPKIAPQAIKHAEILEGDGGPGTIKKITFGEGSQYGYVKHKIDSVDEANYSYAYTLIEGDALTDTIEKVSYETKLVATPDGGSIIKSISHYHTKGDVEIMEEHVKAGKEKAHGLFKLIESYLLDHSDAYN
As to B4, in experiment [3], the shift of the histamine release curve toward higher antigen concentrations compared to rBet v 1.2801 is 20 fold.

B5: mutated rMal d 1 (2762) (protein)
chain: GVYTYENEYTSVIPPARLFKAFVLDADNLIPKIAPQAIKHAEILEGDGGPGTIKKITFGEGSQYGYVKHKIDSVDEANYSYAYTLIEGDALTDTIEKVSYETKLVATPDGGSIIKSISHYHTKGDVEIMEEHVKAGKEKAHGLFKLIESYLLDHSDAYN
As to B5, in experiment [4], the percent inhibition of binding of serum-IgE to biotinylated rBet v 1.2801 came to 62%. The fold higher antigen concentration than rBet v 1.2801 to reach the same IgE inhibition (62%) in experiment [5] came to 500 fold.
